Results taken from PMC3644091.

Target: IP39, 39-kDa integral membrane protein of Euglena gracilis (Euglena gracilis)
Assay: cryo-EM structure

IP39, 39-kDa integral membrane protein of Euglena gracilis (natural protein)
stoichiometry N: 3
